Data as given in patent US20180148485A1 (Pieris, published 2018).
Like-named read-outs stand apart in the source and are kept apart here.

Legend:
[1] = target: T1, recombinant human CD137-Fc fusion protein (#838-4B-100, R&D Systems) (human, UniProt Q07011 24-186); experiment: dual-binding ELISA: CD137-Fc coated, fusion titrated, biotinylated GPC3 detected with Extravidin-HRP
T1 construct: also called Fc-fusion of human CD137; not shown: Fc part of the bought fusion protein, not described
Procedure: FIG. 16: provides a representative experiment in which the ability of two bispecific fusion polypeptides of SEQ ID NO: 46 and SEQ ID NO: 47 to bind the targets, GPC3 and CD137, simultaneously was determined. Recombinant CD137-Fc fusion protein was coated on a microtiter plate, followed by a titration of the fusion protein. Subsequently, a constant concentration of biotinylated human GPC3 was added, which was detected via HRP-labeled extravidin as described in Example 16. The data was fitted with a 1:1 binding model with EC50 value and the maximum signal as free parameters, and a slope that was fixed to unity.
The result of the experiment is depicted in FIG. 16, together with the fit curves resulting from a 1:1 binding sigmoidal fit, where the EC50 value and the maximum signal were free parameters, and the slope was fixed to unity.

[2] = target: T1, recombinant human CD137-Fc fusion …; experiment: SPR, CD137-Fc captured by anti-human Fc antibody on CM5 chip, 1:1 model
Procedure: Binding affinities of the CD137-binding lipocalin mutein and the bispecific polypeptides of SEQ ID NO: 46 and SEQ ID NO: 47 to recombinant human CD137-Fc fusion protein (#838-4B-100, R&D Systems) were determined by Surface Plasmon Resonance using a Biacore T200 instrument (GE Healthcare) in analogy to Example 6. Prior to the SPR affinity assay, a CM5 sensor chip was derivatized with an anti-human Fc antibody using the Human Antibody Capture Kit (GE Healthcare # BR-1008-39) according to the manufacturer's instructions.
Four different concentrations (1000 nM, 200 nM, 40 nM and 8 nM) of the bispecific polypeptides were prepared in running buffer (10 mM HEPES, 150 mM NaCl, 0.05% v/v Surfactant P20, 3 mM EDTA, pH 7.4 (GE Healthcare)) and applied to the chip surface. Applying a flow rate of 30 μL/min, the sample contact time was 180 s and dissociation time was 600 s. All measurements were performed at 25° C. […] Prior to the protein measurements three regeneration cycles were performed for conditioning purposes. Data were evaluated with Biacore T200 Evaluation software (V 2.0). Double referencing was used and the 1:1 Binding model was used to fit the raw data.

[3] = target: T1, recombinant human CD137-Fc fusion …; experiment: ELISA, CD137-Fc coated, as described in Example 3
[4] = target: T2, recombinant human GPC3 (R&D Systems #2119-GP-050/CF) (human, UniProt P51654 25-559); experiment: SPR, biotinylated fusion captured on CAP chip, GPC3 as analyte (11-300 nM)
T2 construct: also called Glypican-3; biotinylated human GPC3
T2 sequence (P51654 25-559 limits assumed): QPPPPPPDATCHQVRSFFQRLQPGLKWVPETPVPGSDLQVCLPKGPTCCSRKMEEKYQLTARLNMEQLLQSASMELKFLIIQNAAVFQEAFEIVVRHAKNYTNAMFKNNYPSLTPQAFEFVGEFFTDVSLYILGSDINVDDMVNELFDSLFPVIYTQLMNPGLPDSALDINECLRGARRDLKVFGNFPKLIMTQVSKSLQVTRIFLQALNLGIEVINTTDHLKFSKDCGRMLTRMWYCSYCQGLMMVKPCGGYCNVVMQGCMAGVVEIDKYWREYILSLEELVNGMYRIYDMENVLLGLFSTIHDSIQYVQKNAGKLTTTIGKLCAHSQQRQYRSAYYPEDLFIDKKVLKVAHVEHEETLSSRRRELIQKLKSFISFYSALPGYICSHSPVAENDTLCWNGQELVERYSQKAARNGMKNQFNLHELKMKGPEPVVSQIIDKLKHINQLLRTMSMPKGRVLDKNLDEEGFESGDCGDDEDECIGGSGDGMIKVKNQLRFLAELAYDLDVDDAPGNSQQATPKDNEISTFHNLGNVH
Procedure: The data were double-referenced by subtraction of the corresponding signals measured for the control channel (loaded with Biotin CAPture reagent only) and by subtraction of buffer injections from the binding responses. Association rate constant kₐ and dissociation rate constant kd for the binding reaction were determined using Biacore T200 Evaluation Software V2.0 for data processing and kinetic fitting.

[5] = target: T2, recombinant human GPC3 (R&D Systems …); experiment: ELISA, GPC3 coated, anti-NGAL-HRP detection
Text: (§1) GPC3 was coated on a microtiter plate and the tested molecules were titrated. Bound molecules were detected via an HRP-labeled human NGAL-specific antibody as described in Example 14. The data was fitted with a 1:1 binding model with EC50 value and the maximum signal as free parameters, and a slope that was fixed to unity.

[6] = target: T2, recombinant human GPC3 (R&D Systems …); experiment: ELISA, GPC3 coated, anti-NGAL-HRP detection; remark: listed apart in the source
Text: as §1, with “anti-human” for “human”, “12.” for “14.”

[7] = target: T1, recombinant human CD137-Fc fusion …; experiment: SPR, biotinylated CD137-Fc captured on CAP chip, 1:1 model, apparent affinity
Procedure: Briefly, biotinylated CD137-Fc was captured on a sensor chip CAP and four dilutions (20, 5, 1.3 and 0.3 nM) of each tested agent (fusion protein or SEQ ID NOs: 34 and 35) were prepared in running buffer and applied to the chip surface. Applying a flow rate of 30 μL/min, the sample contact time was 180 s and dissociation time was 600 s. All measurements were otherwise performed and analyzed as described in Example 5.

[8] = target: T1, recombinant human CD137-Fc fusion …; experiment: ELISA, CD137-Fc coated, anti-human IgG-HRP detection
Procedure: The antibody of SEQ ID NOs: 34 and 35 served as the positive control. The target was dissolved in PBS (1 μg/mL) and coated overnight on microtiter plates at 4° C. The plate was washed after each incubation step with 100 μL PBS-T five times. The plates were blocked with 2% BSA (w/v) in PBS-T for 1 h at room temperature and subsequently washed. Different concentrations of the CD137-specific antibody or the fusion polypeptides were added to the wells and incubated for 1 h at room temperature, followed by a wash step. Bound fusion protein was detected after incubation for 1 h at room temperature with 1:5000 diluted mouse anti-human IgG Fab antibody conjugated to HRP (Jackson Laboratories) in PBS-TB. After an additional wash step, fluorogenic HRP substrate (QuantaBlu, Thermo) was added to each well and the fluorescence intensity was detected using a fluorescence microplate reader.
The result of the experiment is depicted in FIG. 3, together with the fit curves resulting from a 1:1 binding sigmoidal fit, where the EC50 value and the maximum signal were free parameters, and the slope was fixed to unity.

| EC50 [1] | Kd [2] | EC50 [3] | Kd [4] | EC50 [5] | EC50 [6] | Kd [7] | EC50 [8] | Binder |
| --- | --- | --- | --- | --- | --- | --- | --- | --- |
| 7300 pM | 1.6 pM | 200 pM | 4300 pM | 140 pM |  |  |  | bispecific fusion polypeptide of SEQ ID NO: 46 (designed binder) QDSTSDLIPAPPLSKVPLQQNFQDNQFQGKWYVVGVAGNGMLREDKDPLKMRATIYELKEDKSYDVTSVAFRNKKCHYKIGTFVPGSQPGEFTLGQIKSGPGETSNLVRVVSTNYNQHAMVFFKEVRQNREWFFITLYGRTKELTSELKENFIRFSKSLGLPENHIVFPVPIDQCIDGGGGGSGGGGSQDSTSDLIPAPPLSKVPLQQNFQDNQFHGKWYVVGQAGNIRLREDKDPIKMMATIYELKEDKSYDVTMVKFDDKKCMYDIWTFVPGSQPGEFTLGKIKSFPGHTSSLVRVVSTNYNQHAMVFFKFVFQNREEFYITLYGRTKELTSELKENFIRFSKSLGLPENHIVFPVPIDQCIDG |
|  |  |  |  | 240 pM |  |  |  | lipocalin mutein of SEQ ID NO: 8 (designed binder) QDSTSDLIPAPPLSKVPLQQNFQDNQFQGKWYVVGVAGNGMLREDKDPLKMRATIYELKEDKSYDVTSVAFRNKKCHYKIGTFVPGSQPGEFTLGQIKSGPGETSNLVRVVSTNYNQHAMVFFKEVRQNREWFFITLYGRTKELTSELKENFIRFSKSLGLPENHIVFPVPIDQCIDG |
| 7470 pM | 0.6 pM | 260 pM | 3500 pM | 160 pM |  |  |  | bispecific fusion polypeptide of SEQ ID NO: 47 (designed binder) QDSTSDLIPAPPLSKVPLQQNFQDNQFQGKWYVVGVAGNGMLREDKDPLKMRATIYELKEDKSYDVTSVAFRNKKCHYKIGTFVPGSQPGEFTLGQIKSGPGETSNLVRVVSTNYNQHAMVFFKEVRQNREWFFITLYGRTKELTSELKENFIRFSKSLGLPENHIVFPVPIDQCIDGGGGGSGGGGSQDSTSDLIPAPPLSKVPLQQNFQDNQFHGKWYVVGQAGNIRLREDKDPIKMMATIYELKEDKSYDVTMVKFDDKKCMYDIWTFVPGSQPGEFTLGKIKSFPGHTSSLVRVVSTNYNQHAMVFFKFVFQNREEFYITLYGRTKELTSELKENFIRFSKSLGLPENHIVFPVPIDQCIDGGGGGSGGGGSQDSTSDLIPAPPLSKVPLQQNFQDNQFHGKWYVVGQAGNIRLREDKDPIKMMATIYELKEDKSYDVTMVKFDDKKCMYDIWTFVPGSQPGEFTLGKIKSFPGHTSSLVRVVSTNYNQHAMVFFKFVFQNREEFYITLYGRTKELTSELKENFIRFSKSLGLPENHIVFPVPIDQCIDG |
|  |  |  |  |  | 620 pM |  |  | fusion polypeptide of SEQ ID NOs: 53 and 54 (bispecific antibody, human IgG2, lambda) chain 1: EVQLVQSGAEVKKPGESLRISCKGSGYSFSTYWISWVRQMPGKGLEWMGKIYPGDSYTNYSPSFQGQVTISADKSISTAYLQWSSLKASDTAMYYCARGYGIFDYWGQGTLVTVSSASTKGPSVFPLAPCSRSTSESTAALGCLVKDYFPEPVTVSWNSGALTSGVHTFPAVLQSSGLYSLSSVVTVPSSNFGTQTYTCNVDHKPSNTKVDKTVERKCCVECPPCPAPPVAGPSVFLFPPKPKDTLMISRTPEVTCVVVDVSHEDPEVQFNWYVDGVEVHNAKTKPREEQFNSTFRVVSVLTVVHQDWLNGKEYKCKVSNKGLPAPIEKTISKTKGQPREPQVYTLPPSREEMTKNQVSLTCLVKGFYPSDIAVEWESNGQPENNYKTTPPMLDSDGSFFLYSKLTVDKSRWQQGNVFSCSVMHEALHNHYTQKSLSLSPGKGGGGSGGGGSGGGGSQDSTSDLIPAPPLSKVPLQQNFQDNQFQGKWYVVGRAGNVGLREDKDPPKMWATIYELKEDKSYDVTNVRFARKKCTYSIGTFVPGSQPGEFTLGQIKSEPGGTANLVRVVSTNYNQHAMVFFKEVYQNREIFFIILYGRTKELTSELKENFIRFSKSLGLPENHIVFPVPIDQCIDG chain 2: SYELTQPPSVSVSPGQTASITCSGDNIGDQYAHWYQQKPGQSPVLVIYQDKNRPSGIPERFSGSNSGNTATLTISGTQAMDEADYYCATYTGFGSLAVFGGGTKLTVLGQPKAAPSVTLFPPSSEELQANKATLVCLISDFYPGAVTVAWKADSSPVKAGVETTTPSKQSNNKYAASSYLSLTPEQWKSHRSYSCQVTHEGSTVEKTVAPTECS |
|  |  |  |  |  |  | 92 pM | 1500 pM | CD137-specific antibody of SEQ ID NOs: 34 and 35 (antibody, human IgG4 S228P, kappa, V domains shown, also called antibody 20H4.9) VH: QVQLQQWGAGLLKPSETLSLTCAVYGGSFSGYYWSWIRQSPEKGLEWIGEINHGGYVTYNPSLESRVTISVDTSKNQFSLKLSSVTAADTAVYYCARDYGPGNYDWYFDLWGRGTLVTVSS VL: EIVLTQSPATLSLSPGERATLSCRASQSVSSYLAWYQQKPGQAPRLLIYDASNRATGIPARFSGSGSGTDFTLTISSLEPEDFAVYYCQQRSNWPPALTFGGGTKVEIKR |
